We go through one substance from PMC10911789.

This test addresses Recombinant spike, SARS-CoV-2 stabilized protein (BEI Resources NR-52724) (SARS-CoV-2) (UniProt P0DTC2). Put plainly: BLI.

recombinant human GAPDH (glyceraldehyde-3-phosphate dehydrogenase), sequence (P04406 whole entry): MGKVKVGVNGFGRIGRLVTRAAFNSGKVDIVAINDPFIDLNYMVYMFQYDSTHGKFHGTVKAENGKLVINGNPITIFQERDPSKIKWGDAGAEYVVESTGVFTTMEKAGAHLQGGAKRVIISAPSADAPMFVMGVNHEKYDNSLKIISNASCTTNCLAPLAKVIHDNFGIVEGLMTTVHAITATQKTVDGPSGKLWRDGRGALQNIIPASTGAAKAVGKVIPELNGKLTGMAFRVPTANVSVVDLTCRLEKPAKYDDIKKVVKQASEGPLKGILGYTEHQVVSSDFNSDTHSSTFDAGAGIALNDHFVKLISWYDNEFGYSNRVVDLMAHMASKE

As for “recombinant human GAPDH (glyceraldehyde-3-phosphate dehydrogenase) (from UniProt P04406 1-335) (enzyme)”, the Kd turned out to be 61.9 nM.
